Results reported in PMC11073571, “Functional and in silico analysis of ATP8A2 and other P4-ATPase variants associated with human genetic diseases” (Disease Models & Mechanisms, 2024).

B1: ATP8A2-CDC50A complex (Homo sapiens) (protein)
chain: MLNGAGLDKALKMSLPRRSRIRSSVGPVRSSLGYKKAEDEMSRATSVGDQLEAPARTIYLNQPHLNKFRDNQISTAKYSVLTFLPRFLYEQIRRAANAFFLFIALLQQIPDVSPTGRYTTLVPLIIILTIAGIKEIVEDFKRHKADNAVNKKKTIVLRNGMWHTIMWKEVAVGDIVKVVNGQYLPADVVLLSSSEPQAMCYVETANLDGETNLKIRQGLSHTADMQTREVLMKLSGTIECEGPNRHLYDFTGNLNLDGKSLVALGPDQILLRGTQLRNTQWVFGIVVYTGHDTKLMQNSTKAPLKRSNVEKVTNVQILVLFGILLVMALVSSAGALYWNRSHGEKNWYIKKMDTTSDNFGYNLLTFIILYNNLIPISLLVTLEVVKYTQALFINWDTDMYYIGNDTPAMARTSNLNEELGQVKYLFSDKTGTLTCNIMNFKKCSIAGVTYGHFPELAREPSSDDFCRMPPPCSDSCDFDDPRLLKNIEDRHPTAPCIQEFLTLLAVCHTVVPEKDGDNIIYQASSPDEAALVKGAKKLGFVFTARTPFSVIIEAMGQEQTFGILNVLEFSSDRKRMSVIVRTPSGRLRLYCKGADNVIFERLSKDSKYMEETLCHLEYFATEGLRTLCVAYADLSENEYEEWLKVYQEASTILKDRAQRLEECYEIIEKNLLLLGATAIEDRLQAGVPETIATLLKAEIKIWVLTGDKQETAINIGYSCRLVSQNMALILLKEDSLDATRAAITQHCTDLGNLLGKENDVALIIDGHTLKYALSFEVRRSFLDLALSCKAVICCRVSPLQKSEIVDVVKKRVKAITLAIGDGANDVGMIQTAHVGVGISGNEGMQATNNSDYAIAQFSYLEKLLLVHGAWSYNRVTKCILYCFYKNVVLYIIELWFAFVNGFSGQILFERWCIGLYNVIFTALPPFTLGIFERSCTQESMLRFPQLYKITQNGEGFNTKVFWGHCINALVHSLILFWFPMKALEHDTVLTSGHATDYLFVGNIVYTYVVVTVCLKAGLETTAWTKFSHLAVWGSMLTWLVFFGIYSTIWPTIPIAPDMRGQATMVLSSAHFWLGLFLVPTACLIEDVAWRAAKHTCKKTLLEEVQELETKSRVLGKAVLRDSNGKRLNERDRLIKRLGRKTPPTLFRGSSLQQGVPHGYAFSQEEHGAVSQEEVIRAYDTTKKKSRKK
notes: heterodimer; with Cell cycle control protein 50A
B2: ATP8A2-CDC50A complex (Homo sapiens; E459Q) (protein)
chain: MLNGAGLDKALKMSLPRRSRIRSSVGPVRSSLGYKKAEDEMSRATSVGDQLEAPARTIYLNQPHLNKFRDNQISTAKYSVLTFLPRFLYEQIRRAANAFFLFIALLQQIPDVSPTGRYTTLVPLIIILTIAGIKEIVEDFKRHKADNAVNKKKTIVLRNGMWHTIMWKEVAVGDIVKVVNGQYLPADVVLLSSSEPQAMCYVETANLDGETNLKIRQGLSHTADMQTREVLMKLSGTIECEGPNRHLYDFTGNLNLDGKSLVALGPDQILLRGTQLRNTQWVFGIVVYTGHDTKLMQNSTKAPLKRSNVEKVTNVQILVLFGILLVMALVSSAGALYWNRSHGEKNWYIKKMDTTSDNFGYNLLTFIILYNNLIPISLLVTLEVVKYTQALFINWDTDMYYIGNDTPAMARTSNLNEELGQVKYLFSDKTGTLTCNIMNFKKCSIAGVTYGHFPELARQPSSDDFCRMPPPCSDSCDFDDPRLLKNIEDRHPTAPCIQEFLTLLAVCHTVVPEKDGDNIIYQASSPDEAALVKGAKKLGFVFTARTPFSVIIEAMGQEQTFGILNVLEFSSDRKRMSVIVRTPSGRLRLYCKGADNVIFERLSKDSKYMEETLCHLEYFATEGLRTLCVAYADLSENEYEEWLKVYQEASTILKDRAQRLEECYEIIEKNLLLLGATAIEDRLQAGVPETIATLLKAEIKIWVLTGDKQETAINIGYSCRLVSQNMALILLKEDSLDATRAAITQHCTDLGNLLGKENDVALIIDGHTLKYALSFEVRRSFLDLALSCKAVICCRVSPLQKSEIVDVVKKRVKAITLAIGDGANDVGMIQTAHVGVGISGNEGMQATNNSDYAIAQFSYLEKLLLVHGAWSYNRVTKCILYCFYKNVVLYIIELWFAFVNGFSGQILFERWCIGLYNVIFTALPPFTLGIFERSCTQESMLRFPQLYKITQNGEGFNTKVFWGHCINALVHSLILFWFPMKALEHDTVLTSGHATDYLFVGNIVYTYVVVTVCLKAGLETTAWTKFSHLAVWGSMLTWLVFFGIYSTIWPTIPIAPDMRGQATMVLSSAHFWLGLFLVPTACLIEDVAWRAAKHTCKKTLLEEVQELETKSRVLGKAVLRDSNGKRLNERDRLIKRLGRKTPPTLFRGSSLQQGVPHGYAFSQEEHGAVSQEEVIRAYDTTKKKSRKK
notes: as for B1
B3: ATP8A2-CDC50A complex (Homo sapiens; E459D) (protein)
chain: MLNGAGLDKALKMSLPRRSRIRSSVGPVRSSLGYKKAEDEMSRATSVGDQLEAPARTIYLNQPHLNKFRDNQISTAKYSVLTFLPRFLYEQIRRAANAFFLFIALLQQIPDVSPTGRYTTLVPLIIILTIAGIKEIVEDFKRHKADNAVNKKKTIVLRNGMWHTIMWKEVAVGDIVKVVNGQYLPADVVLLSSSEPQAMCYVETANLDGETNLKIRQGLSHTADMQTREVLMKLSGTIECEGPNRHLYDFTGNLNLDGKSLVALGPDQILLRGTQLRNTQWVFGIVVYTGHDTKLMQNSTKAPLKRSNVEKVTNVQILVLFGILLVMALVSSAGALYWNRSHGEKNWYIKKMDTTSDNFGYNLLTFIILYNNLIPISLLVTLEVVKYTQALFINWDTDMYYIGNDTPAMARTSNLNEELGQVKYLFSDKTGTLTCNIMNFKKCSIAGVTYGHFPELARDPSSDDFCRMPPPCSDSCDFDDPRLLKNIEDRHPTAPCIQEFLTLLAVCHTVVPEKDGDNIIYQASSPDEAALVKGAKKLGFVFTARTPFSVIIEAMGQEQTFGILNVLEFSSDRKRMSVIVRTPSGRLRLYCKGADNVIFERLSKDSKYMEETLCHLEYFATEGLRTLCVAYADLSENEYEEWLKVYQEASTILKDRAQRLEECYEIIEKNLLLLGATAIEDRLQAGVPETIATLLKAEIKIWVLTGDKQETAINIGYSCRLVSQNMALILLKEDSLDATRAAITQHCTDLGNLLGKENDVALIIDGHTLKYALSFEVRRSFLDLALSCKAVICCRVSPLQKSEIVDVVKKRVKAITLAIGDGANDVGMIQTAHVGVGISGNEGMQATNNSDYAIAQFSYLEKLLLVHGAWSYNRVTKCILYCFYKNVVLYIIELWFAFVNGFSGQILFERWCIGLYNVIFTALPPFTLGIFERSCTQESMLRFPQLYKITQNGEGFNTKVFWGHCINALVHSLILFWFPMKALEHDTVLTSGHATDYLFVGNIVYTYVVVTVCLKAGLETTAWTKFSHLAVWGSMLTWLVFFGIYSTIWPTIPIAPDMRGQATMVLSSAHFWLGLFLVPTACLIEDVAWRAAKHTCKKTLLEEVQELETKSRVLGKAVLRDSNGKRLNERDRLIKRLGRKTPPTLFRGSSLQQGVPHGYAFSQEEHGAVSQEEVIRAYDTTKKKSRKK
notes: as for B1

Substrate: CCCCCCCC/C=C\CCCCCCCC(=O)OC[C@H](COP(=O)(O)OC[C@H](N)C(=O)O)OC(=O)CCCCCCC/C=C\CCCCCCCC
Experiment: colorimetric phosphate-release ATPase assay, Michaelis-Menten fit
Type: biochemical, Homo sapiens
Conditions: PS activation constant (not association constant), 5 mM ATP, DOPC:DOPS mixtures at 2.5 mg/ml total lipid, 10 mM CHAPS, 12.5 mM MgCl2, pH 7.5, 37°C

In order of falling K0.5:
1. B3  19.3 ± 4.2 µM
2. B1  14.3 ± 4.3 µM
3. B2  8.4 ± 3.1 µM
